Data taken from patent US20230242662A1.
Where a chain is given by its changes, count along the chain named.

B1: Benchmark (BM) BA-133-00-01 (antibody, V domains shown)
VH: QVQLQESGPGLVKPSETLSLTCTVSGGSVSSYDISWIRQPPGKGLEWIGVIWTDGGTNYNSAFMSRVTISVDTSKNQFSLKLSSVTAADTAVYYCARVYDGYPWFAYWGQGTLVTVSS
VL: DIQMTQSPSSLSASVGDRVTITCRASQGISNYLNWYQQKPGKAPKLLIYYTSSLHSGVPSRFSGSGSGTDFTLTISSLQPEDFATYYCQQYIKLPWTFGGGTKLEIKR
B2: BA-133-04-04 (antibody, V domains shown)
VH: EVQLVESGGGLVQPGGSLRLSCAASGGSVSSYDISWIRQSPSRGLEWLGVIWTDGGTNYNSAFMSRFTISRDDSKNTAYLQMNSLKTEDTAVYYCERVYDGYPWFAYWGQGTLVTVSS
VL: AIQLTQSPSSLSASVGDRVTITCRASQGISNYLNWYLQKPGQSPQLLIYYTSSLHEGVPDRFSGSGSGTDFTLKISRVEAEDVGVYYCQQYIKLPWTFGQGTKVEIK
B3: BA-133-04-02 (antibody, V domains shown)
VH: B2 VH
VL: B2 VL with S30A, E56S
B4: BAP133-2-03-03-SL (antibody, V domains shown)
VH: B2 VH
VL: B2 VL with E56S
B5: BA-133-04-03 (antibody, V domains shown)
VH: B2 VH
VL: B2 VL with H55F, E56S
B6: BA-133-04-01 (antibody, V domains shown)
VH: B2 VH
VL: B2 VL with G28W, E56S
B7: BAP133-2-02-12 (antibody, V domains shown)
VH: B2 VH
VL: AIQLTQSPSSLSASVGDRVTITCRALQGISNYLNWYQQKPGKAPKLLIYYTSSLHSGVPSRFSGSGSGTEFTLTISSLQPDDFATYYCQQYIKLPWTFGQGTKVEIK

molecular target: recombinant human CD46 antigen (human) (UniProt P15529); assay: ELISA, coated human CD46; EC50 at pH 7.4 over EC50 at pH 6.0

Binder	ratio (ph 7.4/pH 6.0)
B1	1.31
B2	3.63
B3	3.8
B4	3.23
B5	2.23
B6	3.46
B7	7.02

molecular target: human CD46 expressed on 293 cells (human) (UniProt P15529); assay: FACS, 293 cells expressing human CD46, pH 7.4

Binder	EC50
B1	0.368 µg/mL
B2	0.647 µg/mL
B3	1.09 µg/mL
B4	0.748 µg/mL
B5	0.427 µg/mL
B6	1.34 µg/mL
B7	2.23 µg/mL

molecular target: human CD46 expressed on 293 cells (human) (UniProt P15529); assay: FACS, 293 cells expressing human CD46, pH 6.0

Binder	EC50
B1	0.147 µg/mL
B2	0.241 µg/mL
B3	0.32 µg/mL
B4	0.336 µg/mL
B5	0.147 µg/mL
B6	0.324 µg/mL
B7	0.676 µg/mL

molecular target: CD46 on Colo205 cells (human) (UniProt P15529); assay: FACS, Colo205 cells that express CD46, pH 6.0

Binder	EC50
B1	0.201 µg/mL
B2	0.246 µg/mL
B3	0.371 µg/mL
B4	0.341 µg/mL
B5	0.151 µg/mL
B6	0.36 µg/mL
B7	0.704 µg/mL

molecular target: CD46 on Colo205 cells (human) (UniProt P15529); assay: cell-based or functional assay

Binder	IC50 of inhibition (cytotoxicity) of Colo205 cells that express CD46, pH 6.0 (test article ADC, CellTiter-Glo)	IC50 of inhibition (cytotoxicity) of Colo205 cells that express CD46, pH 7.4 (test article ADC, CellTiter-Glo)	Ratio (pH 7.4/6.0) of the cytotoxicity IC50 on Colo205 cells
B1	4.91 ng/mL	11.6 ng/mL	2.37
B2	6.58 ng/mL	56 ng/mL	8.51
B4	33.3 ng/mL	253 ng/mL	7.6

molecular target: human CD46 expressed on 293 cells (human) (UniProt P15529); assay: cell-based or functional assay

Binder	IC50 of in vitro cell killing of 293 cells expressing human CD46, pH 6.0 (test article ADC, CellTiter-Glo)	IC50 of in vitro cell killing of 293 cells expressing human CD46, pH 7.4 (test article ADC, CellTiter-Glo)	Ratio (pH 7.4/6.0) of the killing IC50 on 293 cells expressing human CD46
B1	15.8 ng/mL	23.6 ng/mL	1.5
B2	13.7 ng/mL	39.9 ng/mL	2.91
B4	20.6 ng/mL	90.4 ng/mL	4.38

molecular target: CD46 on Colo205 cells (human) (UniProt P15529); assay: FACS, Colo205 cells that express CD46, pH 7.4

Binder	EC50
B1	0.513 µg/mL
B2	0.96 µg/mL
B3	1.57 µg/mL
B4	1.48 µg/mL
B5	1.47 µg/mL
B6	1.66 µg/mL
B7	3.63 µg/mL

molecular target: CD46 on Colo205 cells (human) (UniProt P15529); assay: FACS, Colo205 cells that express CD46; EC50 at pH 7.4 over EC50 at pH 6.0

Binder	Ratio (pH 7.4/6.0)
B1	2.6
B2	3.9
B3	4.2
B4	4.4
B5	9.7
B6	4.6
B7	5.2

molecular target: recombinant human CD46 antigen (human) (UniProt P15529); assay: pH range ELISA (pH 5.5 to 7.4), coated human CD46

Binder	pH inflection point
B2	6.7 pH
B3	6.64 pH
B4	6.8 pH
B6	6.61 pH
B7	6.58 pH

molecular target: human CD46 expressed on 293 cells (human) (UniProt P15529); assay: FACS, 293 cells expressing human CD46; EC50 at pH 7.4 over EC50 at pH 6.0

Binder	Ratio (pH 7.4/6.0)
B1	2.5
B2	2.7
B3	3.4
B4	2.2
B5	2.9
B6	4.1
B7	3.3
